These results are taken from paper PMC314469, “Protein Interaction Networks by Proteome Peptide Scanning” (PLoS Biology, 2004).

T1: Rvs167 SH3 (RV167_YEAST), P39743
T1 chain: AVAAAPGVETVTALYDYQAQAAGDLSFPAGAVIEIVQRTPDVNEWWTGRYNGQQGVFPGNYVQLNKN

T2: Yfr024 SH3 (LSB3_YEAST), P43603
T2 chain: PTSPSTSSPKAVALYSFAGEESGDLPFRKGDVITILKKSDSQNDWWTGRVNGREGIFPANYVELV

T3: Boi1 SH3 (BOI1_YEAST), P38041
T3 chain: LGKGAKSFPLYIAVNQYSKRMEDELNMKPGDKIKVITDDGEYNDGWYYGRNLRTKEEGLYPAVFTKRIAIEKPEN

T4: Yhr016c SH3 (YSC84_YEAST), P32793
T4 chain: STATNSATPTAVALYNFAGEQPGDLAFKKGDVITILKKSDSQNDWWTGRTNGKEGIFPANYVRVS

T5: Boi2 SH3 (BOI2_YEAST), P39969
T5 chain: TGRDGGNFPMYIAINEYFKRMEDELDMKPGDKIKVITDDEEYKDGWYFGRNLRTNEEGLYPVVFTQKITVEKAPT

The target of one experiment is T1, Rvs167 SH3 (RV167_YEAST), P39743. Description: SPOT array.
Molecule SASPYRPQRLPAKF [YDL033C 13-26] gave a normalised SPOT signal, Boehringer light units (BLU); mean over the file's lines of this peptide of 67.3.
For the molecule RTEPSTPSRPVPPD [YJL095W 1078-1091], the normalised SPOT signal, Boehringer light units (BLU); mean over the file's lines of this peptide turned out to be 15.7.
Consider SAIPITPTKRIRRN [YJL194W 2-15], for which the normalised SPOT signal, Boehringer light units (BLU); mean over the file's lines of this peptide stood at 73.
SASPTLPTRRSRRL [YDL156W 62-75] yielded a normalised SPOT signal, Boehringer light units (BLU); mean over the file's lines of this peptide of 77800.
Same read-out and setting: then RRKPHSPNKKKPKE [YDR223W 12-25], with 38.5; and RSIPRGPDKNSLRV [YOR322C 268-281], with 296; and SALPILPKREVVTR [YGL028C 19-32], with 20100.
SDTPASPSKVQSFD [YMR182C 187-200]: the normalised SPOT signal, Boehringer light units (BLU); mean over the file's lines of this peptide turned out to be 51.8.
The same measure, in the same setting: then SAFPQSPIRAYGST [YGL197W 1382-1395], with 48.9; and RVLPSKPKKSVKEN [YLR183C 354-367], with 42.3; and SDLPSSPIKAPNVE [YHR164C 232-245], with 27.8.
On the same count and under the same terms, then SEEPTSPTRQVNPE [YER032W 443-456], with 40.3; and SDKPLTPTKTSSTL [YER143W 341-354], with 100; and RVHPEPPNKPGITT [YDR330W 407-420], with 55.3.
As for RYKPTPPLKKRYDY [YPL074W 335-348], the normalised SPOT signal, Boehringer light units (BLU); mean over the file's lines of this peptide was 50.9.

The target in the next experiment is T2, Yfr024 SH3 (LSB3_YEAST), P43603. Put plainly: SPOT array.
In the case of SASPYRPQRLPAKF [YDL033C 13-26], the normalised SPOT signal, Boehringer light units (BLU); mean over the file's lines of this peptide amounted to 2420.
Turning to RTEPSTPSRPVPPD [YJL095W 1078-1091], the normalised SPOT signal, Boehringer light units (BLU); mean over the file's lines of this peptide came out at 7000.
SAIPITPTKRIRRN [YJL194W 2-15]: the normalised SPOT signal, Boehringer light units (BLU); mean over the file's lines of this peptide worked out at 2690.
Consider SASPTLPTRRSRRL [YDL156W 62-75], for which the normalised SPOT signal, Boehringer light units (BLU); mean over the file's lines of this peptide is 49400.
The molecule RRKPHSPNKKKPKE [YDR223W 12-25] came in with a normalised SPOT signal, Boehringer light units (BLU); mean over the file's lines of this peptide of 693.
Still for that read-out and setting: as for RSIPRGPDKNSLRV [YOR322C 268-281], the figure is 384; as for SALPILPKREVVTR [YGL028C 19-32], 49200; as for SDTPASPSKVQSFD [YMR182C 187-200], 94.3.
Consider SAFPQSPIRAYGST [YGL197W 1382-1395], for which the normalised SPOT signal, Boehringer light units (BLU); mean over the file's lines of this peptide came to 186.
Consider RVLPSKPKKSVKEN [YLR183C 354-367], for which the normalised SPOT signal, Boehringer light units (BLU); mean over the file's lines of this peptide was determined as 2620.
The same measure, in the same setting: as for SDLPSSPIKAPNVE [YHR164C 232-245], the figure is 8.4.
With SEEPTSPTRQVNPE [YER032W 443-456], the normalised SPOT signal, Boehringer light units (BLU); mean over the file's lines of this peptide worked out at 52.2.
SDKPLTPTKTSSTL [YER143W 341-354] came in with a normalised SPOT signal, Boehringer light units (BLU); mean over the file's lines of this peptide of 150.
Take RVHPEPPNKPGITT [YDR330W 407-420]: the normalised SPOT signal, Boehringer light units (BLU); mean over the file's lines of this peptide stood at 271.
In the case of RYKPTPPLKKRYDY [YPL074W 335-348], the normalised SPOT signal, Boehringer light units (BLU); mean over the file's lines of this peptide was 2110.

The next experiment deals with T3, Boi1 SH3 (BOI1_YEAST), P38041. Put plainly: SPOT array.
SASPYRPQRLPAKF [YDL033C 13-26] showed a normalised SPOT signal, Boehringer light units (BLU); mean over the file's lines of this peptide of 514.
Same read-out and setting: then RTEPSTPSRPVPPD [YJL095W 1078-1091], with 54.7; and SAIPITPTKRIRRN [YJL194W 2-15], with 873.
Turning to SASPTLPTRRSRRL [YDL156W 62-75], the normalised SPOT signal, Boehringer light units (BLU); mean over the file's lines of this peptide was 46400.
Consider RRKPHSPNKKKPKE [YDR223W 12-25], for which the normalised SPOT signal, Boehringer light units (BLU); mean over the file's lines of this peptide was found to be 148.
RSIPRGPDKNSLRV [YOR322C 268-281] registered a normalised SPOT signal, Boehringer light units (BLU); mean over the file's lines of this peptide of 230.
For SALPILPKREVVTR [YGL028C 19-32], the normalised SPOT signal, Boehringer light units (BLU); mean over the file's lines of this peptide was 72.3.
As to SDTPASPSKVQSFD [YMR182C 187-200], the normalised SPOT signal, Boehringer light units (BLU); mean over the file's lines of this peptide is 94.4.
On the same count and under the same terms, as for SAFPQSPIRAYGST [YGL197W 1382-1395], the figure is 238; as for RVLPSKPKKSVKEN [YLR183C 354-367], 156.
The molecule SDLPSSPIKAPNVE [YHR164C 232-245] registered a normalised SPOT signal, Boehringer light units (BLU); mean over the file's lines of this peptide of 41.3.
Molecule SEEPTSPTRQVNPE [YER032W 443-456] came in with a normalised SPOT signal, Boehringer light units (BLU); mean over the file's lines of this peptide of 32.5.
Same read-out and setting: then SDKPLTPTKTSSTL [YER143W 341-354], with 110.
The molecule RVHPEPPNKPGITT [YDR330W 407-420] gave a normalised SPOT signal, Boehringer light units (BLU); mean over the file's lines of this peptide of 122.
RYKPTPPLKKRYDY [YPL074W 335-348]: the normalised SPOT signal, Boehringer light units (BLU); mean over the file's lines of this peptide came to 25.5.

In the next experiment the target is T4, Yhr016c SH3 (YSC84_YEAST), P32793. Description: SPOT array.
Turning to SASPYRPQRLPAKF [YDL033C 13-26], the normalised SPOT signal, Boehringer light units (BLU); mean over the file's lines of this peptide was 543.
Consider RTEPSTPSRPVPPD [YJL095W 1078-1091], for which the normalised SPOT signal, Boehringer light units (BLU); mean over the file's lines of this peptide was determined as 435.
The molecule SAIPITPTKRIRRN [YJL194W 2-15] registered a normalised SPOT signal, Boehringer light units (BLU); mean over the file's lines of this peptide of 31.6.
In the case of SASPTLPTRRSRRL [YDL156W 62-75], the normalised SPOT signal, Boehringer light units (BLU); mean over the file's lines of this peptide stood at 97900.
For the molecule RRKPHSPNKKKPKE [YDR223W 12-25], the normalised SPOT signal, Boehringer light units (BLU); mean over the file's lines of this peptide came to 113.
In turn, RSIPRGPDKNSLRV [YOR322C 268-281] yielded a normalised SPOT signal, Boehringer light units (BLU); mean over the file's lines of this peptide of 144.
SALPILPKREVVTR [YGL028C 19-32] came in with a normalised SPOT signal, Boehringer light units (BLU); mean over the file's lines of this peptide of 43500.
In the case of SDTPASPSKVQSFD [YMR182C 187-200], the normalised SPOT signal, Boehringer light units (BLU); mean over the file's lines of this peptide came out at 46.4.
For the molecule SAFPQSPIRAYGST [YGL197W 1382-1395], the normalised SPOT signal, Boehringer light units (BLU); mean over the file's lines of this peptide is 156.
Still for that read-out and setting: then RVLPSKPKKSVKEN [YLR183C 354-367], with 196.
Turning to SDLPSSPIKAPNVE [YHR164C 232-245], the normalised SPOT signal, Boehringer light units (BLU); mean over the file's lines of this peptide came out at 50.7.
SEEPTSPTRQVNPE [YER032W 443-456] registered a normalised SPOT signal, Boehringer light units (BLU); mean over the file's lines of this peptide of 303.
Turning to SDKPLTPTKTSSTL [YER143W 341-354], the normalised SPOT signal, Boehringer light units (BLU); mean over the file's lines of this peptide amounted to 377.
On to RVHPEPPNKPGITT [YDR330W 407-420], for which the normalised SPOT signal, Boehringer light units (BLU); mean over the file's lines of this peptide was 250.
Molecule RYKPTPPLKKRYDY [YPL074W 335-348] yielded a normalised SPOT signal, Boehringer light units (BLU); mean over the file's lines of this peptide of 148.

The target of another experiment is T5, Boi2 SH3 (BOI2_YEAST), P39969. Description: SPOT array.
Molecule SASPYRPQRLPAKF [YDL033C 13-26] had a normalised SPOT signal, Boehringer light units (BLU); mean over the file's lines of this peptide of 105.
The same measure, in the same setting: then RTEPSTPSRPVPPD [YJL095W 1078-1091], with 8.2; and SAIPITPTKRIRRN [YJL194W 2-15], with 141; and SASPTLPTRRSRRL [YDL156W 62-75], with 10000.
Molecule RRKPHSPNKKKPKE [YDR223W 12-25] gave a normalised SPOT signal, Boehringer light units (BLU); mean over the file's lines of this peptide of 198.
Same read-out and setting: as for RSIPRGPDKNSLRV [YOR322C 268-281], the figure is 76.1; as for SALPILPKREVVTR [YGL028C 19-32], 33.1; as for SDTPASPSKVQSFD [YMR182C 187-200], 77.6.
SAFPQSPIRAYGST [YGL197W 1382-1395]: the normalised SPOT signal, Boehringer light units (BLU); mean over the file's lines of this peptide was 37.5.
On to RVLPSKPKKSVKEN [YLR183C 354-367], for which the normalised SPOT signal, Boehringer light units (BLU); mean over the file's lines of this peptide was found to be 17.8.
SDLPSSPIKAPNVE [YHR164C 232-245]: the normalised SPOT signal, Boehringer light units (BLU); mean over the file's lines of this peptide was 59.9.
Turning to SEEPTSPTRQVNPE [YER032W 443-456], the normalised SPOT signal, Boehringer light units (BLU); mean over the file's lines of this peptide came to 26.6.
In turn, SDKPLTPTKTSSTL [YER143W 341-354] had a normalised SPOT signal, Boehringer light units (BLU); mean over the file's lines of this peptide of 53.6.
RVHPEPPNKPGITT [YDR330W 407-420] yielded a normalised SPOT signal, Boehringer light units (BLU); mean over the file's lines of this peptide of 76.2.
Still for that read-out and setting: then RYKPTPPLKKRYDY [YPL074W 335-348], with 83.4.
